Assay results taken from patent US12440573B2, “Antibody-conjugates for targeting of tumours expressing PTK7” (Synaffix B.V., priority 2022, dated 2025).
Marks after values point to notes of the source that are not given here.

Assays:
[1] = tested on: A431 (PTK7+, ATCC CRL-1555) cells; assay: In vitro cytotoxicity, resazurin viability; type: cell-based; settings: 5 days incubation
Procedure: A431 (PTK7+, ATCC CRL-1555) cells were plated in 96-well plates (10000 cells in 150 μL/well) in DMEM (ATCC) supplemented with 10% fetal bovine serum (FBS) (Invitrogen) and incubated overnight in a humidified atmosphere at 37° C. and 5% CO2. ADCs were added in triplo in a square root of 10 dilution series to obtain a final concentration ranging from 100 nM-0.01 nM. The cells were incubated for 5 days in a humidified atmosphere at 37° C. and 5% CO2. The culture medium was replaced by 0.01 mg/mL resazurin (Sigma Aldrich) in DMEM supplemented with 10% FBS (200 μL/well). After approximately 4 hours in a humidified atmosphere at 37° C. and 5% CO2 the fluorescence was detected with a fluorescence plate reader (Infinite® M1000 Tecan) at 560 nm excitation and 590 nm emission. The relative fluorescent units (RFU) were normalized to cell viability percentage by setting wells without cells at 0% viability and wells with untreated cells at 100% viability (see FIG. 9). IC50 values for ADCs on A431 cells were calculated by non-linear regression using Graphpad prism software and are shown in the table below: […]

[2] = Stability of ADCs in human plasma (DAR by RP-UPLC); type: in vitro ADME
Procedure: (§1) General procedure for analytical RP-UPLC (DTT treated samples): Prior to RP-UPLC analysis, IgG (10 μL, 1 mg/mL in PBS pH 7.4) was added to 12.5 mM DTT, 100 mM TrisHCl pH 8.0 (40 μL) and incubated for 15 minutes at 37° C. The reaction was quenched by adding 49% acetonitrile, 49% water, 2% formic acid (50 μL). RP-UPLC analysis was performed on a Waters Acquity UPLC-SQD. The sample (5 μL) was injected with 0.4 mL/min onto Bioresolve RP mAb 2.1*150 mm 2.7 μm (Waters) with a column temperature of 70° C. A linear gradient was applied in 9 minutes from 30 to 54% acetonitrile in 0.1% TFA and water. Absorbance of eluted peaks was measured at 215 nm followed by automated integration (MassLynx, Waters) to determine reaction conversion.
(§2) Stability of ADCs in mice and human plasma was tested. Prior to the assay, the plasma was depleted from all IgG using CaptivA® Protein A agarose (1 mL agarose/mL serum). ADCs were added to the depleted human/mouse serum to a final concentration of 0.1 mg/mL followed by incubation at 37° C. At each time point, 0.5 mL was snap frozen and stored at −80° C. until further analysis. To isolate the ADCs after incubation, 20 μl CaptivA® Protein A agarose resin was added to the samples and incubated for 1 hour at room temperature. The resin was washed three times with PBS and subsequently 0.1 M Glycine-HCl pH 2.7 (0.4 mL) was added to elute the ADCs. After elution, the samples were immediately neutralized with 1.0 M Tris pH 8.0 (0.1 mL). The samples were spin-filtered against PBS for three times using Amicon Ultra spin-filter 0.5 mL MWCO 10 kDa (Merck Millipore) and the volume was reduced to 40 μL, yielding a final ADC concentration of approximately 1 mg/mL. Samples were analyzed on RP-UPLC (DTT reduced) to determine the DAR, tables below.

[3] = Stability of ADCs in mice plasma (DAR by RP-UPLC); type: in vitro ADME
Procedure: as §1, §2

[4] = tested on: PTK7 expressing NCl—H446 tumor model; assay: In vivo efficacy study, NCl—H446 xenograft (Example 30); set-up: species or system BALB/c nude mice; settings: single IV dose; cofetuzumab-3 2.59, 5.18, 10.36 mg/kg; cofetuzumab-5b 2.59, 5.18 mg/kg; cofetuzumab-Aur0101 2.33 mg/kg; up to t=44 days
Procedure: (§3) NCl—H446, lung cancer xenograft model cell line was maintained in vitro using RPMI-1640 medium supplemented with 10% FBS in humidified cell culture incubator at 37° C. with standard 5% CO2 specs. The cells in an exponential growth phase were harvested and counted for tumor inoculation.
BALB/c nude mice (female) of 7-9 weeks old received a subcutaneous injection in the right front flank region with 5×10^6 tumor cells in 0.1 ml of PBS mixed with Matrigel (1:1) for tumor development. When tumors reached an average size of 100-200 mm^3, randomization was performed into 10 groups of 8 mice and treatment began. Randomization will be performed based on “Matched distribution” method (Study Director™ Software, version 3.1.399.19). The date of randomization will be denoted as day 0.
(§4) Electronic caliper measurement were performed 2 times a week. Daily observations for clinical signs, food and water consumption, behavioral changes, animals were weighed 2 times per week. […]
(§5) Observation and data collection. […] Tumor volumes are measured every 3-4 days in two dimensions using an caliper, and the volume data are expressed in mm3 using the formula: V=(L×W×W)/2, where V is tumor volume, L is tumor length (the longest tumor dimension) and W is tumor width (the longest tumor dimension perpendicular to L). […]

[5] = tested on: PTK7 expressing NCl—H446 tumor model; assay: In vivo efficacy study, NCl—H446 xenograft, with Olaparib (Example 33); set-up: species or system BALB/c nude mice; settings: ADC 2.5 mg/kg single IV dose; Olaparib 50 mg/kg orally QD×21 days
Procedure: as §3
BALB/c nude mice (female) of 7-9 weeks old received a subcutaneous injection in the right front flank region with 5×10^6 tumor cells in 0.1 ml of PBS mixed with Matrigel (1:1) for tumor development. When tumors reached an average size of 100-200 mm^3, randomization was performed into 5 groups of 8 mice and treatment began. Randomization will be performed based on “Matched distribution” method (Study Director™ Software, version 3.1.399.19). The date of randomization will be denoted as day 0.
as §4
as §5, with “collection: After tumor cells inoculation, the animals are checked daily for morbidity and mortality.” for “collection.”

[6] = human plasma, 0.1 mg/mL, 37° C.

Compound: B12-3: B12(6-N3-GalNAc)2 conjugated with BCN—HS-PEG2-HS-(va-PAB-Ex)2 3; negative / isotype control ADC [reference compound]
- IC50 [1]: > 100 nM

Compound: cofetuzumab-Aur0101: TCEP-reduced cofetuzumab conjugated with Auristatin0101; average DAR 4.3; conventional comparator ADC [reference compound]
- DAR t = 0 ([2]; human plasma table, direct measurement (not through isolation from plasma with protA agarose resin)): 4.21*
- DAR t = 3 [2, 6]: 3.61
- DAR t = 14 [2, 6]: 2.67
- DAR t = 14, % of t = 0 [2, 6]: 63%
- DAR t = 0 ([3]; mice plasma table, direct measurement (not through isolation from plasma with protA agarose resin)): 4.21*
- DAR t = 1 ([3]; mice plasma, 0.1 mg/mL, 37° C.): 3.64
- DAR t = 3 ([3]; mice plasma, 0.1 mg/mL, 37° C.): 3.26
- DAR t = 7 ([3]; mice plasma, 0.1 mg/mL, 37° C.): 2.46
- DAR t = 7, % of t = 0 ([3]; mice plasma, 0.1 mg/mL, 37° C.): 58%
- in vivo efficacy (tumor volume over time) [4]: only marginal tumor growth delay

Compound: cofetuzumab-5b: cofetuzumab(6-N3-GalNAc)2 conjugated with BCN—HS-vc-PABC-calicheamicin 5b; average DAR 1.93
- IC50 [1]: 0.1 nM
- in vivo efficacy (tumor volume over time) [4]: tumor growth delay

Compound: O=C(c1cc(Cc2n[nH]c(=O)c3ccccc23)ccc1F)N1CCN(C(=O)C2CC2)CC1 [Olaparib]
- in vivo efficacy (tumor volume over time), single treatment [5]: no significant effect
